B1: ABSCISIC ACID-… 5-like protein 7 (Arabidopsis thaliana (Mouse-ear cress)), Q9M7Q2 (parent)
chain: MGTHINFNNLGGGGHPGGEGSSNQMKPTGSVMPLARQSSVYSLTFDELQNTLGGPGKDFGSMNMDELLKSIWTAEEAQAMAMTSAPAATAVAQPGAGIPPPGGNLQRQGSLTLPRTISQKTVDEVWKCLITKDGNMEGSSGGGGESNVPPGRQQTLGEMTLEEFLFRAGVVREDNCVQQMGQVNGNNNNGFYGNSTAAGGLGFGFGQPNQNSITFNGTNDSMILNQPPGLGLKMGGTMQQQQQQQQLLQQQQQQMQQLNQPHPQQRLPQTIFPKQANVAFSAPVNITNKGFAGAANNSINNNNGLASYGGTGVTVAATSPGTSSAENNSLSPVPYVLNRGRRSNTGLEKVIERRQRRMIKNRESAARSRARKQAYTLELEAEIEKLKKTNQELQKKQAEMVEMQKNELKETSKRPWGSKRQCLRRTLTGPW
partner: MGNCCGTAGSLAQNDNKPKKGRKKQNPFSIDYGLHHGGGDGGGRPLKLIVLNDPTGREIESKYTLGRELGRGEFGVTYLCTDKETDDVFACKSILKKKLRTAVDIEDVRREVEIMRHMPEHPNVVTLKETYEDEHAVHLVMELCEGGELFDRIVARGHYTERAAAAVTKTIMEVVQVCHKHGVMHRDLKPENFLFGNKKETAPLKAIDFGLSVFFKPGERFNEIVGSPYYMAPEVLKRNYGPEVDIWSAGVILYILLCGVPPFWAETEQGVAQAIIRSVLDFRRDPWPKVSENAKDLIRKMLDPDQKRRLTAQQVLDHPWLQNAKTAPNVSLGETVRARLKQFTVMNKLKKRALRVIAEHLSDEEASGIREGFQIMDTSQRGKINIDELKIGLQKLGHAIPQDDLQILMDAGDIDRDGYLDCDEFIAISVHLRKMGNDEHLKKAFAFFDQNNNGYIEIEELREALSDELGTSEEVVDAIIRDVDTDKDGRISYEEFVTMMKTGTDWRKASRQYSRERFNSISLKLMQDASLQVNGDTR

Variants of B1 are the subject of one experiment. Particulars: with cdpkw_arath CPK32, Q6NLQ6.
Take S110A: the “effect of a mutation on the interaction” value is listed as “disrupting interaction”.

In the next experiment the parent is B1. Particulars: with cdpkw_arath CPK32, Q6NLQ6. This is another data set of the same source.
In the case of S110A, the “effect of a mutation on the interaction” value is recorded as “decreasing interaction”.

Source of the values: IntAct's records for PubMed 16299177.
